Molecular target: human CD3 (human) (UniProt P07766)
Assay: flow cytometry, serially diluted antibody on Jurkat cells, PE goat anti-mouse IgG

human CD3 (human), sequence (P07766 23-207): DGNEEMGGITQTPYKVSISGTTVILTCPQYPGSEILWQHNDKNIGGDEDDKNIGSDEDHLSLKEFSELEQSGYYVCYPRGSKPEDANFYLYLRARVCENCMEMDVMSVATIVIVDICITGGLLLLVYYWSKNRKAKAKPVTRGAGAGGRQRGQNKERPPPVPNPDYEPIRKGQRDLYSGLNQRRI

“OKT3 antibody (mouse anti-human CD3, recombinant, made in 293T cells from pME-wtOKT3 HC and pME-wtOKT3 LC)” gave an antibody concentration giving comparable binding of 0.4 ng/mL.

Reference: patent US20120329995A1
